Patent US20120308575A1

What was measured:
[1] = target: recombinant human TNF-α (Product 210-TA-050, R&D) (human) (UniProt P01375); experiment: cell-based or functional assay
[2] = target: recombinant human TNF-α (Product 210-TA-050, R&D) (human) (UniProt P01375); experiment: SPR, Biacore T100, TNFα amine-coupled to CM5 chip, antibody in flow
[3] = target: recombinant human TNF-α (Product 210-TA-050, R&D) (human) (UniProt P01375); experiment: flow cytometry competition: FITC-TNF-α (100 ng/ml) on U937 cells, antibody titrated; average of 3
[4] = target: recombinant human TNF-α (Product 210-TA-050, R&D) (human) (UniProt P01375); experiment: flow cytometry competition: FITC-TNF-α (100 ng/ml) on U937 cells, antibody titrated; experiment 1
[5] = target: recombinant human TNF-α (Product 210-TA-050, R&D) (human) (UniProt P01375); experiment: flow cytometry competition: FITC-TNF-α (100 ng/ml) on U937 cells, antibody titrated; experiment 2
[6] = target: recombinant human TNF-α (Product 210-TA-050, R&D) (human) (UniProt P01375); experiment: flow cytometry competition: FITC-TNF-α (100 ng/ml) on U937 cells, antibody titrated; experiment 3
[7] = target: recombinant human TNF-α (Product 210-TA-050, R&D) (human) (UniProt P01375); experiment: competition ELISA: biotin-TNF-α (10 ng/ml) on coated P75 receptor-Fc, antibody titrated; average of 3
[8] = target: recombinant human TNF-α (Product 210-TA-050, R&D) (human) (UniProt P01375); experiment: competition ELISA: biotin-TNF-α (10 ng/ml) on coated P75 receptor-Fc, antibody titrated; experiment 1
[9] = target: recombinant human TNF-α (Product 210-TA-050, R&D) (human) (UniProt P01375); experiment: competition ELISA: biotin-TNF-α (10 ng/ml) on coated P75 receptor-Fc, antibody titrated; experiment 2
[10] = target: recombinant human TNF-α (Product 210-TA-050, R&D) (human) (UniProt P01375); experiment: competition ELISA: biotin-TNF-α (10 ng/ml) on coated P75 receptor-Fc, antibody titrated; experiment 3

Sequence of recombinant human TNF-α (Product 210-TA-050, R&D) (human) (P01375 77-233 limits assumed): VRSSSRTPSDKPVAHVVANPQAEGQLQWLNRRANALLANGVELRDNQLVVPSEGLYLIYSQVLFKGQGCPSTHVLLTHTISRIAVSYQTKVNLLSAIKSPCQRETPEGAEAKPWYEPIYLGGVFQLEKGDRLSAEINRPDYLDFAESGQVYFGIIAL

Increase in Body Temperature of Rabbits (rhTNF-α 5 µg/kg i.v. mixed with antibody 500 µg/kg; 60 min) [1]: 0 ° C.
Kd [2]: 0.63 nM
IC50 [3]: 7.36 µg/mL
IC50 [4]: 6.62 µg/mL
IC50 [5]: 8.03 µg/mL
IC50 [6]: 7.44 µg/mL
IC50 [7]: 2.35 µg/mL
IC50 [8]: 2.3 µg/mL
IC50 [9]: 2.15 µg/mL
IC50 [10]: 2.59 µg/mL
Substance: fully human antibody adalimumab (Humira, D2E7, commercial product)
IC50 of resistance to TNF-α-mediated killing of L929 cells (MTS), average [1]: 0.316 µg/mL
IC50 of resistance to TNF-α-mediated killing of L929 cells (MTS), experiment 1 [1]: 0.296 µg/mL
IC50 of resistance to TNF-α-mediated killing of L929 cells (MTS), experiment 2 [1]: 0.335 µg/mL
IC50 of resistance to TNF-α-mediated killing of L929 cells (MTS), experiment 3 [1]: 0.318 µg/mL
Survival Status of Mice (rhTNF-α 1 µg + D-galactosamine 20 mg; antibody 1 µg i.p. 30 min before) [1]: 20%
Survival Status of Mice (rhTNF-α 1 µg + D-galactosamine 20 mg; antibody 2 µg i.p. 30 min before) [1]: 40%
Survival Status of Mice (rhTNF-α 1 µg + D-galactosamine 20 mg; antibody 4 µg i.p. 30 min before) [1]: 40%
Survival Status of Mice (rhTNF-α 1 µg + D-galactosamine 20 mg; antibody 6 µg i.p. 30 min before) [1]: 50%
Survival Status of Mice (rhTNF-α 1 µg + D-galactosamine 20 mg; antibody 8 µg i.p. 30 min before) [1]: 60%
